Test results as given in US20250313605A1.
*1 amine or outer side, *2 acyl side, *3 side chain or, on linkers, in order; H or OH if unused. Where no end group is shown, it is not given here. Side-chain parts run from the residue outwards. [ ]: non-standard residue; d: D form. The star is where a group is joined. C20 diacid = O=C(O)CCCCCCCCCCCCCCCCCCC(=O)*; γGlu = O=C(O)[C@H](CCC(=O)[*:2])N[*:1]; αMeL = CC(C)C[C@](C)(N)C(=O)O; αMeK = C[C@](N)(CCCCN)C(=O)O; AEEA = NCCOCCOCC(=O)O; Aib = CC(C)(N)C(=O)O

Key:
[1] = molecular target: T1, human GIP receptor (human), P48546; assay: cell-based or functional assay
T1 chain: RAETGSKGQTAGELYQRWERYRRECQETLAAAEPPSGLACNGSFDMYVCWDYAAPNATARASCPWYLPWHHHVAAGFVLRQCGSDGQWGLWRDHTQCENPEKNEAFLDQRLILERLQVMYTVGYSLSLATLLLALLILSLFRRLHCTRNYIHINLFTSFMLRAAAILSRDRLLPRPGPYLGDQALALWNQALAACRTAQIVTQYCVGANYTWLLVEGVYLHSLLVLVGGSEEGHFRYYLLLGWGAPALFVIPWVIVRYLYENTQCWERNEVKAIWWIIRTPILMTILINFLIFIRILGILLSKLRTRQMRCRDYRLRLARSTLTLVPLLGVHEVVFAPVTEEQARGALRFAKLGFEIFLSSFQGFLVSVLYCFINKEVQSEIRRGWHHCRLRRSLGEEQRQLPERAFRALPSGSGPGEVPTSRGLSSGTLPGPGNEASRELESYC

[2] = molecular target: T2, human GLP-1 receptor (human), P43220; assay: cell-based or functional assay
T2 chain: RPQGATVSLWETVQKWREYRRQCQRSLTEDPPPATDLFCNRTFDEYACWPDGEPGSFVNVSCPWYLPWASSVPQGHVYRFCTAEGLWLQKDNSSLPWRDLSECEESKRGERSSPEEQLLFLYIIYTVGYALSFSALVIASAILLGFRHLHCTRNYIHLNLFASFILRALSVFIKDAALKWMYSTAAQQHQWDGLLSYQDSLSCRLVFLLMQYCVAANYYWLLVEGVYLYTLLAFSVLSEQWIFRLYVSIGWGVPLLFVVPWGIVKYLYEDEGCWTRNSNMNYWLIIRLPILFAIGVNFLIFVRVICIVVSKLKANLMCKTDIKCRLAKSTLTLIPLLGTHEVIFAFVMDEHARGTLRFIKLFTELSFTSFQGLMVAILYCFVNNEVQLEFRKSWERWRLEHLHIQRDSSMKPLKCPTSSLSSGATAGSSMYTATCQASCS

[3] = molecular target: human glucagon receptor (human), P47871; assay: cell-based or functional assay
Sequence of human glucagon receptor (human), P47871 (P47871 26-477): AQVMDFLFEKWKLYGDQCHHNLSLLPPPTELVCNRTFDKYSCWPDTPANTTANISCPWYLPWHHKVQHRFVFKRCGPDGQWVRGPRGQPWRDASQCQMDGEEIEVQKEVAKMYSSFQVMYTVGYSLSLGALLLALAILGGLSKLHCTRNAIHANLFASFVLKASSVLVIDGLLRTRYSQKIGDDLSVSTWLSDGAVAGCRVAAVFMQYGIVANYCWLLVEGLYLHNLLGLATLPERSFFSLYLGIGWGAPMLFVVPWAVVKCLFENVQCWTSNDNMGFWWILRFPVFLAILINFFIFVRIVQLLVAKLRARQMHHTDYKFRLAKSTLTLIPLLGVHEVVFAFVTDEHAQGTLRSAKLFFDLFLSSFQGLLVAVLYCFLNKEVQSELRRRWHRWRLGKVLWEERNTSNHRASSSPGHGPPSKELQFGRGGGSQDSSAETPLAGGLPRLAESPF

[4] = molecular target: T1, human GIP receptor (human), P48546; assay: radioligand competition SPA, HEK293 membranes
[5] = molecular target: T2, human GLP-1 receptor (human), P43220; assay: radioligand competition SPA, HEK293 membranes
[6] = molecular target: human glucagon receptor (human), P47871; assay: radioligand competition SPA, HEK293 membranes

B1: Example 5 (peptide)
peptide: Y[Aib]QGTFTSDYSI[αMeL]LDKK([AEEA-AEEA-γGlu-C20 diacid])AAQAFIEYLLE[Aib]GPSSGAPPPS-NH2
modifications: N-terminus assumed
SMILES: CC[C@H](C)[C@H](NC(=O)[C@H](Cc1ccccc1)NC(=O)[C@H](C)NC(=O)[C@H](CCC(N)=O)NC(=O)[C@H](C)NC(=O)[C@H](C)NC(=O)[C@H](CCCCNC(=O)COCCOCCNC(=O)COCCOCCNC(=O)CC[C@H](NC(=O)CCCCCCCCCCCCCCCCCCC(=O)O)C(=O)O)NC(=O)[C@H](CCCCN)NC(=O)[C@H](CC(=O)O)NC(=O)[C@H](CC(C)C)NC(=O)[C@](C)(CC(C)C)NC(=O)[C@@H](NC(=O)[C@H](CO)NC(=O)[C@H](Cc1ccc(O)cc1)NC(=O)[C@H](CC(=O)O)NC(=O)[C@H](CO)NC(=O)[C@@H](NC(=O)[C@H](Cc1ccccc1)NC(=O)[C@@H](NC(=O)CNC(=O)[C@H](CCC(N)=O)NC(=O)C(C)(C)NC(=O)[C@@H](N)Cc1ccc(O)cc1)[C@@H](C)O)[C@@H](C)O)[C@@H](C)CC)C(=O)N[C@@H](CCC(=O)O)C(=O)N[C@@H](Cc1ccc(O)cc1)C(=O)N[C@@H](CC(C)C)C(=O)N[C@@H](CC(C)C)C(=O)N[C@@H](CCC(=O)O)C(=O)NC(C)(C)C(=O)NCC(=O)N1CCC[C@H]1C(=O)N[C@@H](CO)C(=O)N[C@@H](CO)C(=O)NCC(=O)N[C@@H](C)C(=O)N1CCC[C@H]1C(=O)N1CCC[C@H]1C(=O)N1CCC[C@H]1C(=O)N[C@@H](CO)C(N)=O
cAMP EC50 (0.1% casein) [1]: 0.0757 nM | cAMP EC50 (FBS and BSA present) [1]: 4.86 nM | cAMP EC50 (0.1% casein) [2]: 0.147 nM | cAMP EC50 (FBS and BSA present) [2]: 22.3 nM | cAMP EC50 (0.1% casein) [3]: 0.0226 nM | cAMP EC50 (FBS and BSA present) [3]: 1.47 nM | Ki [4]: 0.179 nM | Ki [5]: 36.7 nM | Ki [6]: 0.422 nM

B2: Example 9 (peptide)
peptide: Y[Aib]QGTFTSDYSI[αMeL]LDKK([γGlu-γGlu-C20 diacid])AQHAFIEYLLEGGPSSGAPPPS-NH2
modifications: N-terminus assumed
SMILES: CC[C@H](C)[C@H](NC(=O)[C@H](Cc1ccccc1)NC(=O)[C@H](C)NC(=O)[C@H](Cc1c[nH]cn1)NC(=O)[C@H](CCC(N)=O)NC(=O)[C@H](C)NC(=O)[C@H](CCCCNC(=O)CC[C@H](NC(=O)CC[C@H](NC(=O)CCCCCCCCCCCCCCCCCCC(=O)O)C(=O)O)C(=O)O)NC(=O)[C@H](CCCCN)NC(=O)[C@H](CC(=O)O)NC(=O)[C@H](CC(C)C)NC(=O)[C@](C)(CC(C)C)NC(=O)[C@@H](NC(=O)[C@H](CO)NC(=O)[C@H](Cc1ccc(O)cc1)NC(=O)[C@H](CC(=O)O)NC(=O)[C@H](CO)NC(=O)[C@@H](NC(=O)[C@H](Cc1ccccc1)NC(=O)[C@@H](NC(=O)CNC(=O)[C@H](CCC(N)=O)NC(=O)C(C)(C)NC(=O)[C@@H](N)Cc1ccc(O)cc1)[C@@H](C)O)[C@@H](C)O)[C@@H](C)CC)C(=O)N[C@@H](CCC(=O)O)C(=O)N[C@@H](Cc1ccc(O)cc1)C(=O)N[C@@H](CC(C)C)C(=O)N[C@@H](CC(C)C)C(=O)N[C@@H](CCC(=O)O)C(=O)NCC(=O)NCC(=O)N1CCC[C@H]1C(=O)N[C@@H](CO)C(=O)N[C@@H](CO)C(=O)NCC(=O)N[C@@H](C)C(=O)N1CCC[C@H]1C(=O)N1CCC[C@H]1C(=O)N1CCC[C@H]1C(=O)N[C@@H](CO)C(N)=O
cAMP EC50 (0.1% casein) [1]: 0.0522 nM | cAMP EC50 (FBS and BSA present) [1]: 4.17 nM | cAMP EC50 (0.1% casein) [2]: 0.0931 nM | cAMP EC50 (FBS and BSA present) [2]: 9.76 nM | cAMP EC50 (0.1% casein) [3]: 0.139 nM | cAMP EC50 (FBS and BSA present) [3]: 6.32 nM | Ki [4]: 0.126 nM | Ki [5]: 11.5 nM | Ki [6]: 8.27 nM

Y[Aib]QGTFTSDYSI[αMeL]LDKK([AEEA-AEEA-γGlu-C20 diacid])AQHAFIEYLLEGGPSSGAPPPS-NH2 [Example 7]
cAMP EC50 (0.1% casein) [1]: 0.0798 nM | cAMP EC50 (FBS and BSA present) [1]: 4.38 nM | cAMP EC50 (0.1% casein) [2]: 0.109 nM | cAMP EC50 (FBS and BSA present) [2]: 15.5 nM | cAMP EC50 (0.1% casein) [3]: 0.18 nM | cAMP EC50 (FBS and BSA present) [3]: 14.2 nM | Ki [4]: 0.11 nM | Ki [5]: 21.4 nM | Ki [6]: 16.3 nM

B3: Example 8 (peptide)
peptide: Y[Aib]QGTFTSDYSILLDKK([AEEA-AEEA-γGlu-C20 diacid])AQ[αMeK]AFIEYLLEGGPSSGAPPPS-NH2
modifications: N-terminus assumed
SMILES: CC[C@H](C)[C@H](NC(=O)[C@H](Cc1ccccc1)NC(=O)[C@H](C)NC(=O)[C@](C)(CCCCN)NC(=O)[C@H](CCC(N)=O)NC(=O)[C@H](C)NC(=O)[C@H](CCCCNC(=O)COCCOCCNC(=O)COCCOCCNC(=O)CC[C@H](NC(=O)CCCCCCCCCCCCCCCCCCC(=O)O)C(=O)O)NC(=O)[C@H](CCCCN)NC(=O)[C@H](CC(=O)O)NC(=O)[C@H](CC(C)C)NC(=O)[C@H](CC(C)C)NC(=O)[C@@H](NC(=O)[C@H](CO)NC(=O)[C@H](Cc1ccc(O)cc1)NC(=O)[C@H](CC(=O)O)NC(=O)[C@H](CO)NC(=O)[C@@H](NC(=O)[C@H](Cc1ccccc1)NC(=O)[C@@H](NC(=O)CNC(=O)[C@H](CCC(N)=O)NC(=O)C(C)(C)NC(=O)[C@@H](N)Cc1ccc(O)cc1)[C@@H](C)O)[C@@H](C)O)[C@@H](C)CC)C(=O)N[C@@H](CCC(=O)O)C(=O)N[C@@H](Cc1ccc(O)cc1)C(=O)N[C@@H](CC(C)C)C(=O)N[C@@H](CC(C)C)C(=O)N[C@@H](CCC(=O)O)C(=O)NCC(=O)NCC(=O)N1CCC[C@H]1C(=O)N[C@@H](CO)C(=O)N[C@@H](CO)C(=O)NCC(=O)N[C@@H](C)C(=O)N1CCC[C@H]1C(=O)N1CCC[C@H]1C(=O)N1CCC[C@H]1C(=O)N[C@@H](CO)C(N)=O
cAMP EC50 (0.1% casein) [1]: 0.114 nM | cAMP EC50 (FBS and BSA present) [1]: 2.23 nM | cAMP EC50 (0.1% casein) [2]: 0.117 nM | cAMP EC50 (FBS and BSA present) [2]: 9.39 nM | cAMP EC50 (0.1% casein) [3]: 0.12 nM | cAMP EC50 (FBS and BSA present) [3]: 6.24 nM | Ki [4]: 0.0958 nM | Ki [5]: 29.4 nM | Ki [6]: 30.4 nM

Y[Aib]QGTFTSDYSI[αMeL]LDKK([AEEA-γGlu-C20 diacid])AQHAFIEYLLEGGPSSGAPPPS-NH2 [Example 10]
cAMP EC50 (0.1% casein) [1]: 0.0928 nM | cAMP EC50 (FBS and BSA present) [1]: 4.3 nM | cAMP EC50 (0.1% casein) [2]: 0.143 nM | cAMP EC50 (FBS and BSA present) [2]: 19.3 nM | cAMP EC50 (0.1% casein) [3]: 0.123 nM | cAMP EC50 (FBS and BSA present) [3]: 8.42 nM | Ki [4]: 0.118 nM | Ki [5]: 12 nM | Ki [6]: 7.37 nM

B4: Example 4 (peptide)
peptide: Y[Aib]QGTFTSDYSILLDKK([AEEA-γGlu-C20 diacid])AQ[Aib]AFIEYLLA[Aib]GPSSGAPPPS-NH2
modifications: N-terminus assumed
SMILES: CC[C@H](C)[C@H](NC(=O)[C@H](Cc1ccccc1)NC(=O)[C@H](C)NC(=O)C(C)(C)NC(=O)[C@H](CCC(N)=O)NC(=O)[C@H](C)NC(=O)[C@H](CCCCNC(=O)COCCOCCNC(=O)CC[C@H](NC(=O)CCCCCCCCCCCCCCCCCCC(=O)O)C(=O)O)NC(=O)[C@H](CCCCN)NC(=O)[C@H](CC(=O)O)NC(=O)[C@H](CC(C)C)NC(=O)[C@H](CC(C)C)NC(=O)[C@@H](NC(=O)[C@H](CO)NC(=O)[C@H](Cc1ccc(O)cc1)NC(=O)[C@H](CC(=O)O)NC(=O)[C@H](CO)NC(=O)[C@@H](NC(=O)[C@H](Cc1ccccc1)NC(=O)[C@@H](NC(=O)CNC(=O)[C@H](CCC(N)=O)NC(=O)C(C)(C)NC(=O)[C@@H](N)Cc1ccc(O)cc1)[C@@H](C)O)[C@@H](C)O)[C@@H](C)CC)C(=O)N[C@@H](CCC(=O)O)C(=O)N[C@@H](Cc1ccc(O)cc1)C(=O)N[C@@H](CC(C)C)C(=O)N[C@@H](CC(C)C)C(=O)N[C@@H](C)C(=O)NC(C)(C)C(=O)NCC(=O)N1CCC[C@H]1C(=O)N[C@@H](CO)C(=O)N[C@@H](CO)C(=O)NCC(=O)N[C@@H](C)C(=O)N1CCC[C@H]1C(=O)N1CCC[C@H]1C(=O)N1CCC[C@H]1C(=O)N[C@@H](CO)C(N)=O
cAMP EC50 (0.1% casein) [1]: 0.0648 nM | cAMP EC50 (FBS and BSA present) [1]: 1.55 nM | cAMP EC50 (0.1% casein) [2]: 0.18 nM | cAMP EC50 (FBS and BSA present) [2]: 10.4 nM | cAMP EC50 (0.1% casein) [3]: 0.0674 nM | cAMP EC50 (FBS and BSA present) [3]: 2.49 nM | Ki [4]: 0.0374 nM | Ki [5]: 3.54 nM | Ki [6]: 2.55 nM

Y[Aib]QGTFTSDYSI[αMeL]LDKK([AEEA-AEEA-γGlu-C20 diacid])AAQAFIEYLLEGGPSSGAPPPS-NH2 [Example 6]
cAMP EC50 (0.1% casein) [1]: 0.274 nM | cAMP EC50 (FBS and BSA present) [1]: 7.41 nM | cAMP EC50 (0.1% casein) [2]: 0.142 nM | cAMP EC50 (FBS and BSA present) [2]: 21.2 nM | cAMP EC50 (0.1% casein) [3]: 0.0282 nM | cAMP EC50 (FBS and BSA present) [3]: 1.99 nM | Ki [4]: 0.249 nM | Ki [5]: 36.7 nM | Ki [6]: 0.835 nM
